Experimental data reported in publication PMC4694547.

Molecular target: HydABCD unit of the synthetic Caldanaerobacter subterranus NADH-dependent [FeFe]-hydrogenase complex (with HydC^His) (Caldanaerobacter subterranus subsp. tengcongensis)
Assay: SEC-MALS; IMAC-purified enzyme on a MAbPac SEC-1 column, 50 mM Tris.HCl pH 7.5, 150 mM NaCl, 0.5 ml/min; peak fraction analysed by SDS-PAGE

HydABCD unit of the synthetic Caldanaerobacter subterranus NADH-dependent [FeFe]-hydrogenase complex (with HydC^His)
stoichiometry N: 2
